# Key:
# [1] = biological target: human mesothelin on cells (SN12C, OVCAR3, SW1990 endogenous; HEK293 transfectants) (human) (UniProt Q13421); assay: FACS, OVCAR3 cells (CA125+)
# [2] = biological target: human mesothelin on cells (SN12C, OVCAR3, SW1990 endogenous; HEK293 transfectants) (human) (UniProt Q13421); assay: FACS, SN12C cells (CA125-)
# mouse 4-1BB (mouse) = mouse 4-1BB (mouse) (UniProt P20334); assay: SPR
# Chain of mouse 4-1BB (mouse) (P20334 24-187): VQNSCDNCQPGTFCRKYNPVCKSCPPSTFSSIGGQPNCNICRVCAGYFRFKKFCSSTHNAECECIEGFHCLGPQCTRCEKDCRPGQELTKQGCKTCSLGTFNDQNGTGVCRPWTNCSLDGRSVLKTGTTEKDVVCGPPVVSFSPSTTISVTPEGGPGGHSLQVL
# Chain of human mesothelin on cells (SN12C, OVCAR3, SW1990 endogenous; HEK293 transfectants) (human) (Q13421 other isoform, or with tags, fused parts or gaps limits assumed): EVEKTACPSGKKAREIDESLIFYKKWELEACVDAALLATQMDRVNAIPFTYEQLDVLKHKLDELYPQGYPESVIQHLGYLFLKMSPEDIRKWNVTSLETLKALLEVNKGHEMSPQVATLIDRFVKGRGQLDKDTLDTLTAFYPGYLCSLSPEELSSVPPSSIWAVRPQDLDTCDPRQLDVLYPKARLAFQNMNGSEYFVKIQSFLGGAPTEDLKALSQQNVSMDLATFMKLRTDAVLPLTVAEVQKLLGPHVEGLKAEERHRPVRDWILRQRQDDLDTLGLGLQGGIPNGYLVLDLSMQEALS
Maximum binding (MFI) [1] [MFI],Maximum binding (MFI) [2] [MFI],Kd (mouse 4-1BB (mouse)) [nM],koff (mouse 4-1BB (mouse)) [s⁻¹],kon (mouse 4-1BB (mouse)) [M⁻¹ s⁻¹],Substance
70,40,–,–,–,HuIgG1 control (antibody)
–,–,3.9,0.008,2.1e+06,1D8 (antibody)

# Reference: patent publication US20170342169A1
